Substitutions are numbered along the chain they refer to.
B1: LV2 probe (dsDNA)
DNA 1: GATACCTAAAGGATCAACAGCTCCTGGGGATTTGGGGTTGCTCTGGAAAACTCATTTGCACCACTGCTGTGCCTTGGAATGCT
DNA 2: AGCATTCCAAGGCACAGCAGTGGTGCAAATGAGTTTTCCAGAGCAACCCCAAATCCCCAGGAGCTGTTGATCCTTTAGGTATC
B2: LV3 probe (dsDNA)
DNA 1: GTCGGGGAAGCTGACGTCCTTTCGAATTCGATATCAAGCTGTACCTTTAAGACCAATGACTTACAAGGCAGCTGTAGATC
DNA 2: GATCTACAGCTGCCTTGTAAGTCATTGGTCTTAAAGGTACAGCTTGATATCGAATTCGAAAGGACGTCAGCTTCCCCGAC
B3: FV2 probe (dsDNA)
DNA 1: AGTAAAAGGATTTGTATATTAGCCTTGCTAAGGGAGACATCTAGTGATATAAGTGTGAACTACACTTATCTTAAATGATG
DNA 2: CATCATTTAAGATAAGTGTAGTTCACACTTATATCACTAGATGTCTCCCTTAGCAAGGCTAATATACAAATCCTTTTACT
B4: FV2 mutant 4 (dsDNA)
DNA 1: B3 DNA 1 with T19G, T20G, A21C, G22T, C23T, C24T, T25A, G27A, C28T, T29C
DNA 2: B3 DNA 2 with A52G, G53A, C54T, A56T, G57A, G58A, C59A, T60G, A61C, A62C
B5: LV1 probe (dsDNA)
DNA 1: ACAAGATAGAGGAAGAGCAAAACAAAAGTAAGACCACCGCACAGCAAGCGGCCGCTGATCTTCAGACCTGGAGGAGGAGATATGAGGGA
DNA 2: TCCCTCATATCTCCTCCTCCAGGTCTGAAGATCAGCGGCCGCTTGCTGTGCGGTGGTCTTACTTTTGTTTTGCTCTTCCTCTATCTTGT

How the values were obtained:
Settings in all cases: tags: full-length, Abnova; label: IRDye700 5' both strands
[1] = biological target: T1, CTCF (Homo sapiens, UniProt P49711 P49711:1-727); assay: EMSA; no LV probe bound
T1 sequence: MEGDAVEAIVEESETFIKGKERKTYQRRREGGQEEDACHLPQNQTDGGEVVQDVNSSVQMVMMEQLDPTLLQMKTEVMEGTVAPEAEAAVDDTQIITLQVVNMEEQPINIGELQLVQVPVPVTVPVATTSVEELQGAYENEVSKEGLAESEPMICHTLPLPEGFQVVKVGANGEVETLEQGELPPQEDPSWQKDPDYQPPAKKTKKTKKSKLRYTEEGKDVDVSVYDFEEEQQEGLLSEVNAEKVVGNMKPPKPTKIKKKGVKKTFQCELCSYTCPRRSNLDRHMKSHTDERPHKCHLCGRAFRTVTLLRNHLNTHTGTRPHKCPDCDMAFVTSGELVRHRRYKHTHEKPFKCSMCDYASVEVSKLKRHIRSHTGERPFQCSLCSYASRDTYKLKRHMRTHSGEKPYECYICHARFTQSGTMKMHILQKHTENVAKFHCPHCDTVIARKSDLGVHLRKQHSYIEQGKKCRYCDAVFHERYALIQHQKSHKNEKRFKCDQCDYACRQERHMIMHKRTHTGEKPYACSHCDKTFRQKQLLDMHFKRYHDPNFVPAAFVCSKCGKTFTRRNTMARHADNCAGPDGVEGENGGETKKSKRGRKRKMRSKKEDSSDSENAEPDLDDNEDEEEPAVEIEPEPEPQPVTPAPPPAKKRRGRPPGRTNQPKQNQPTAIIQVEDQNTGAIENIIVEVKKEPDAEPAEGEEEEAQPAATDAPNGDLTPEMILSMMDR

[2] = biological target: T1, CTCF; assay: EMSA; 20 mM HEPES pH 7.5, 50 mM KCl, 5 mM MgCl2, 3.3 uM ZnSO4, poly(dI:dC), room temp; competed by unlabeled H19
[3] = biological target: T1, CTCF; assay: EMSA; region 4 mutated, no effect

Binder	binding result [1]	other results
B1	no binding	
B2	no binding	
B3		binding result [2]: binds
B4		binding result [3]: binds
B5	no binding	

Reference: US20200255860, “A STRONG INSULATOR AND USES […] IN GENE DELIVERY” (CHILDREN'S HOSPITAL MEDICAL CENTER, published 2020)
